In article PMC10397247:
Where two headings read alike, the source gives them in different places.

What was measured:
Test in all cases: two-hybrid library CCmax;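 note: natural log of median RNA to DNA barcode read ratio; higher means stronger binding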
4H340-AA = molecular target: T1, 4H340-AA; settings: mean of both orientations
T1 chain: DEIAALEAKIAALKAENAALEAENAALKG

4H1594-AA = molecular target: T2, 4H1594-AA; settings: mean of both orientations
T2 chain: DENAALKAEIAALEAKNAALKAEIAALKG

4H993-AA = molecular target: T3, 4H993-AA; settings: mean of both orientations
T3 chain: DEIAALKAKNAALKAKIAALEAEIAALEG

4H3112-AA = molecular target: T4, 4H3112-AA; settings: mean of both orientations
T4 chain: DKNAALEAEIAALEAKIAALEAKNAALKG

4H2907-AA = molecular target: T5, 4H2907-AA; settings: mean of both orientations
T5 chain: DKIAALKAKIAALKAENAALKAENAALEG

4H2277-AA = molecular target: T6, 4H2277-AA; settings: mean of both orientations
T6 chain: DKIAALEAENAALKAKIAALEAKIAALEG

4H1513-AA = molecular target: T7, 4H1513-AA; settings: mean of both orientations
T7 chain: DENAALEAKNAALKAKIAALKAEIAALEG

4H2729-AA = molecular target: T8, 4H2729-AA; settings: mean of both orientations
T8 chain: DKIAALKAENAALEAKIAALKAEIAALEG

4H2883-AA = molecular target: T9, 4H2883-AA; settings: mean of both orientations
T9 chain: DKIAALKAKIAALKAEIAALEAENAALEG

4H3343-AA = molecular target: T10, 4H3343-AA; settings: mean of both orientations
T10 chain: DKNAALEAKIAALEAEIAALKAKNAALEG

4H2165-AA = molecular target: T11, 4H2165-AA
T11 chain: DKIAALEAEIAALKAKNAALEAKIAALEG

4H32-AA = molecular target: T12, 4H32-AA; settings: mean of both orientations
T12 chain: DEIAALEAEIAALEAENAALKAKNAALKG

4H2837-AA = molecular target: T13, 4H2837-AA
T13 chain: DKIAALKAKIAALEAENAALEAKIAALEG

4H2648-AA = molecular target: T14, 4H2648-AA; settings: mean of both orientations
T14 chain: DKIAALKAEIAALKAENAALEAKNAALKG

4H3627-AA = molecular target: T15, 4H3627-AA; settings: mean of both orientations
T15 chain: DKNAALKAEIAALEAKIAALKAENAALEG

P9-AA = molecular target: T16, P9-AA; settings: mean of both orientations
T16 chain: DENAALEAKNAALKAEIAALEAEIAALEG

4H_GCN4 = molecular target: 4H_GCN4
4H3718-AA = molecular target: T17, 4H3718-AA
T17 chain: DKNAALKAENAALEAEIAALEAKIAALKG

4H2198-AA = molecular target: T18, 4H2198-AA; settings: mean of both orientations
T18 chain: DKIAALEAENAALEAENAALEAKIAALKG

4H982-AA = molecular target: T19, 4H982-AA; settings: mean of both orientations
T19 chain: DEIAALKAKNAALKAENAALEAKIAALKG

4H1629-AA = molecular target: T20, 4H1629-AA; settings: mean of both orientations
T20 chain: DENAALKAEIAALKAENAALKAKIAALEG

4H1864-AA = molecular target: T21, 4H1864-AA; settings: mean of both orientations
T21 chain: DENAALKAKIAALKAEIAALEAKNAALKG

4H171-AA = molecular target: T22, 4H171-AA; settings: mean of both orientations
T22 chain: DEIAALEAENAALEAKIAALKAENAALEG

4H745-AA = molecular target: T23, 4H745-AA; settings: mean of both orientations
T23 chain: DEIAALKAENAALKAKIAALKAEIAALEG

4H2109-AA = molecular target: T24, 4H2109-AA; settings: mean of both orientations
T24 chain: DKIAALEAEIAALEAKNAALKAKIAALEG

4H1842-AA = molecular target: T25, 4H1842-AA; settings: mean of both orientations
T25 chain: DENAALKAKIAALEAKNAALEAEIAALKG

4H174-AA = molecular target: T26, 4H174-AA; settings: mean of both orientations
T26 chain: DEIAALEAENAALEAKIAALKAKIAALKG

4H3049-AA = molecular target: T27, 4H3049-AA; settings: mean of both orientations
T27 chain: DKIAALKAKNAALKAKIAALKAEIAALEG

4H930-AA = molecular target: T28, 4H930-AA; settings: mean of both orientations
T28 chain: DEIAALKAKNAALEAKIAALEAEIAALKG

4H3130-AA = molecular target: T29, 4H3130-AA; settings: mean of both orientations
T29 chain: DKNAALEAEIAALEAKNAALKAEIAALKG

4H3381-AA = molecular target: T30, 4H3381-AA; settings: mean of both orientations
T30 chain: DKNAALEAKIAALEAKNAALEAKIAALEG

4H56-AA = molecular target: T31, 4H56-AA; settings: mean of both orientations
T31 chain: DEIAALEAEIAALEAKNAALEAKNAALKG

4H452-AA = molecular target: T32, 4H452-AA; settings: mean of both orientations
T32 chain: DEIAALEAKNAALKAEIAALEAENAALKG

4H3073-AA = molecular target: T33, 4H3073-AA
T33 chain: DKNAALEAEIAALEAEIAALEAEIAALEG

4H2699-AA = molecular target: T34, 4H2699-AA; settings: mean of both orientations
T34 chain: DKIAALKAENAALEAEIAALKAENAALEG

4H464-AA = molecular target: T35, 4H464-AA; settings: mean of both orientations
T35 chain: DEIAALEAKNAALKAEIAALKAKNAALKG

4H446-AA = molecular target: T36, 4H446-AA; settings: mean of both orientations
T36 chain: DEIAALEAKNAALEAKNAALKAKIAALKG

4H2903-AA = molecular target: T37, 4H2903-AA; settings: mean of both orientations
T37 chain: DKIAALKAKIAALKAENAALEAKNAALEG

4H406-AA = molecular target: T38, 4H406-AA; settings: mean of both orientations
T38 chain: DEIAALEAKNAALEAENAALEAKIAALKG

4H3969-AA = molecular target: T39, 4H3969-AA; settings: mean of both orientations
T39 chain: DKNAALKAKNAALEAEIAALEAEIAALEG

4H2728-AA = molecular target: T40, 4H2728-AA; settings: mean of both orientations
T40 chain: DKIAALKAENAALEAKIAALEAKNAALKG

4H3595-AA = molecular target: T41, 4H3595-AA; settings: mean of both orientations
T41 chain: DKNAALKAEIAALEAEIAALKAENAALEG

4H2580-AA = molecular target: T42, 4H2580-AA; settings: mean of both orientations
T42 chain: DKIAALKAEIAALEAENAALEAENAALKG

Sequence of 4H_GCN4 (chain, as listed by the source): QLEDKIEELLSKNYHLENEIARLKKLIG

B1: 4H1401-AA (peptide)
chain: DENAALEAKIAALKAKNAALKAEIAALEG
An interaction score (4H340-AA) of -1.93, an interaction score (4H1594-AA) of -0.109 and an interaction score (4H993-AA) of -1.26 were found for B1 in this work. For the same binder, the interaction score (4H3112-AA) was -1.06, the interaction score (4H2907-AA) was -1.63 and the interaction score (4H2277-AA) was -1.59. For the same binder, the interaction score (4H1513-AA) was -1.9, the interaction score (4H2729-AA) was 0.705 and the interaction score (4H2883-AA) was -1.43. The interaction score (4H3343-AA) was -1.44, the interaction score (4H2165-AA; mean of both orientations) was -1.62 and the interaction score (4H32-AA) was 0.0762. For the same binder, the interaction score (4H2837-AA; mean of both orientations) was 1.61, the interaction score (4H2648-AA) was 0.46 and the interaction score (4H3627-AA) was -1.38. It also gave an interaction score (P9-AA) of -0.999, an interaction score (4H_GCN4) of -1.67 and an interaction score (4H3718-AA; mean of both orientations) of 0.196. It also gave an interaction score (4H2198-AA) of 1.85, an interaction score (4H982-AA) of -0.483 and an interaction score (4H1629-AA) of -1.08.

B2: 4H1385-AA (peptide)
chain: DENAALEAKIAALKAKIAALKAEIAALEG
An interaction score (4H1864-AA) of 0.56, an interaction score (4H171-AA) of -0.131 and an interaction score (4H745-AA) of -1.3 were found for B2 in this work. It also gave an interaction score (4H2109-AA) of 0.64, an interaction score (4H1842-AA) of -1.47 and an interaction score (4H174-AA) of 0.819. It also gave an interaction score (4H3049-AA) of -0.544, an interaction score (4H930-AA) of -1.18 and an interaction score (4H_GCN4) of -1.45. For the same binder, the interaction score (4H3130-AA) was -0.837 and the interaction score (4H3381-AA) was -1.28.

B3: 4H249-AA (peptide)
chain: DEIAALEAENAALKAKNAALKAEIAALEG
An interaction score (4H56-AA) of -1.62, an interaction score (4H452-AA) of -1.53 and an interaction score (4H3073-AA; mean of both orientations) of -1.75 were found for B3 in this work. The interaction score (4H2699-AA) was -1.1, the interaction score (4H464-AA) was -1.77 and the interaction score (4H446-AA) was -1.26. It also gave an interaction score (4H2903-AA) of -0.757, an interaction score (4H406-AA) of 1.19 and an interaction score (4H3049-AA) of -1.71. The interaction score (4H3969-AA) was -1.58, the interaction score (4H_GCN4) was -1.66 and the interaction score (4H2728-AA) was -0.387. For the same binder, the interaction score (4H3595-AA) was -1.4, the interaction score (4H2580-AA) was -0.825 and the interaction score (4H3381-AA) was -1.79.

B4: 4H1626-AA (peptide)
chain: DENAALKAEIAALKAENAALKAEIAALKG
An interaction score (4H1864-AA) of -1.36, an interaction score (4H171-AA) of -1.66 and an interaction score (4H745-AA) of -1.25 were found for B4 in this work. The interaction score (4H2109-AA) was -1.51, the interaction score (4H1842-AA) was -1.57 and the interaction score (4H406-AA) was -1.8. For the same binder, the interaction score (4H174-AA) was -1.63, the interaction score (4H930-AA) was -1.25 and the interaction score (4H3130-AA) was -0.637. It also gave an interaction score (4H3381-AA) of -1.5.

B5: 4H2165-AA (peptide)
chain: DKIAALEAEIAALKAKNAALEAKIAALEG
An interaction score (4H56-AA) of -0.766, an interaction score (4H452-AA) of -1.51 and an interaction score (4H993-AA) of 0.0167 were found for B5 in this work. For the same binder, the interaction score (4H3112-AA) was -0.868, the interaction score (4H2277-AA) was -1.36 and the interaction score (4H3073-AA) was -1.45. It also gave an interaction score (4H406-AA) of -1.15, an interaction score (4H2729-AA) of -1.3 and an interaction score (4H2883-AA) of -1.67. It also gave an interaction score (4H3343-AA) of -0.847, an interaction score (4H2165-AA) of 1.41 and an interaction score (4H2837-AA) of 0.959. The interaction score (4H3627-AA) was -1.58 and the interaction score (4H_GCN4) was -1.58.

B6: 4H3606-AA (peptide)
chain: DKNAALKAEIAALEAENAALEAKIAALKG
An interaction score (4H993-AA) of 1.33, an interaction score (4H3627-AA) of -1.29 and an interaction score (P9-AA) of -0.51 were found for B6 in this work. The interaction score (4H_GCN4) was -0.288, the interaction score (4H3718-AA) was -1.15 and the interaction score (4H982-AA) was 0.00779.

B7: 4H1350-AA (peptide)
chain: DENAALEAKIAALKAEIAALEAKIAALKG
An interaction score (4H3049-AA) of 0.379 and an interaction score (4H_GCN4) of -1.31 were found for B7 in this work.
